For one assay, the target named is HLA-A*29:02. As to the kind of experiment: IEDB peptide-MHC binding, purified MHC/competitive/radioactivity; filed as Kd, often an IC50 or EC50 that approximates it; ≥ and ≤ were set here for values at or beyond the usual limits of such assays.
A further assay has as its target HLA-A*23:01. The assay is described as above.
The target in assay [1] is HLA-A*24:02. The description is as above.
The target in assay [2] is HLA-A*26:01. The assay is described as above.
For a further assay, the target named is HLA-A*01:01. The description is as above.
A further assay concerns the target HLA-A*30:02. Described as above.
Assay [3] concerns the target HLA-A*24:02. Description: IEDB peptide-MHC binding, purified MHC/competitive/fluorescence; ≥ and ≤ were set here for values at or beyond the usual limits of such assays.
The next assay has as its target HLA-B*15:01. As to the kind of experiment: IEDB peptide-MHC binding, purified MHC/competitive/radioactivity; filed as Kd, often an IC50 or EC50 that approximates it; ≥ and ≤ were set here for values at or beyond the usual limits of such assays. As to conditions: source organism: Dengue virus 3 Martinique/1243/1999.
Another assay deals with HLA-B*40:01. The description is as above.
Assay [4] has as its target HLA-A*26:01. Description: IEDB peptide-MHC binding, purified MHC/direct/fluorescence; filed as Kd, often an IC50 or EC50 that approximates it; ≥ and ≤ were set here for values at or beyond the usual limits of such assays. As to conditions: source organism: Bacillus cereus NVH0597-99.
The target in a further assay is HLA-A*02:01. Description: IEDB peptide-MHC binding, purified MHC/competitive/fluorescence; ≥ and ≤ were set here for values at or beyond the usual limits of such assays. As to conditions: source organism: Sudan ebolavirus.
Where [5] appears, read: source organism: SARS coronavirus Tor2.
[6] abbreviates: source organism: Vaccinia virus.
Setting [7] is: source organism: Mammarenavirus juninense.
The mark [8] stands for this setting: source organism: Dengue virus 3 Martinique/1243/1999.
Where [9] appears, read: source organism: Zaire ebolavirus.
Setting [10] is: source organism: Dengue virus 2 Jamaica/1409/1983.
Setting [11] is: source organism: Dengue virus 1 Brazil/97-11/1997.
The mark [12] stands for this setting: source organism: Sudan ebolavirus.
Setting [13] is: source organism: Lymphocytic choriomeningitis virus (strain Armstrong).
[14] abbreviates: source organism: Mammarenavirus brazilense.
Setting [15] is: source organism: Mammarenavirus whitewaterense.

pIC50, pKd: −log10 of the molar value.

As a reminder, the pKd is −log10 of the Kd, conventionally taken in molar units. By pIC50 is commonly meant −log10 of the IC50, conventionally taken in molar units. A low value points to a high IC50.

For NIDATSTGNY, the pKd in the assay with HLA-A*29:02 (setting [5]) is 5.26; with HLA-A*23:01 (setting [5]), at most 4.15; in the assay with HLA-A*24:02 [1] (setting [5]) it was at most 4.15; in the assay with HLA-A*26:01 [2] (setting [5]) it was 6.05; with HLA-A*01:01 (setting [5]) it was 6.96; with HLA-A*30:02 (setting [5]), 5.85.

In turn, EKEFLRYLL had a pIC50 in the assay with HLA-A*24:02 [3] (setting [6]) of at most 3.93.

Turning to LDHVNTLHF, the negative-log Kd (pKd) with HLA-A*29:02 (setting [7]) is at most 4.20; with HLA-A*23:01 (setting [7]), 5.29; with HLA-A*24:02 [1] (setting [7]), 4.98; with HLA-A*26:01 [2] (setting [7]), at most 4.11; with HLA-A*01:01 (setting [7]), 4.71; in the assay with HLA-A*30:02 (setting [7]), at most 4.33.

With RQMEGEGVL, the values for the pKd with HLA-B*15:01 and in the assay with HLA-B*40:01 (setting [8]) were 7.73 and 7.36, respectively.

DYRHYSASF: the pKd in the assay with HLA-A*29:02 (setting [5]) is 7.59; with HLA-A*23:01 (setting [5]), 7.05; in the assay with HLA-A*24:02 [1] (setting [5]), 6.67; in the assay with HLA-A*26:01 [2] (setting [5]), 5.13; in the assay with HLA-A*01:01 (setting [5]) it was at most 4.38; with HLA-A*30:02 (setting [5]), 5.36.

In the assay with HLA-A*24:02 [3] (setting [9]), EYTYPDSLE gave a negative-log IC50 (pIC50) of at most 3.72.

In the assay with HLA-A*26:01 [4], HTKKEMRSF gave a pKd of 7.82.

Consider YFPREGVFVF, for which the pKd is 8.14 in the assay with HLA-A*29:02 (setting [5]); 8.24 with HLA-A*23:01 (setting [5]); 8.13 with HLA-A*24:02 [1] (setting [5]); 4.76 in the assay with HLA-A*26:01 [2] (setting [5]); at most 4.15 in the assay with HLA-A*01:01 (setting [5]); at most 4.10 with HLA-A*30:02 (setting [5]).

As to HWVPTSRTTW, the negative logarithm of the Kd (pKd) in the assay with HLA-A*23:01 (setting [10]) was 6.13; with HLA-A*24:02 [1] (setting [10]) it was 6.22.

As for NYMPYVFTLL, the negative-log Kd (pKd) was 6.89 with HLA-A*29:02 (setting [5]); 8.95 in the assay with HLA-A*23:01 (setting [5]); 8.99 with HLA-A*24:02 [1] (setting [5]); at most 4.16 with HLA-A*26:01 [2] (setting [5]); at most 4.39 with HLA-A*01:01 (setting [5]); 5.59 in the assay with HLA-A*30:02 (setting [5]).

Turning to VERAVLDDGI, the negative logarithm of the Kd (pKd) in the assay with HLA-B*40:01 (setting [11]) was 5.77.

NRKAIDFLL gave a negative-log IC50 (pIC50) in the assay with HLA-A*24:02 [3] (setting [12]) of at most 4.14.

On to IEAGRTLRVL, for which, in the assay with HLA-B*40:01 (setting [10]), the negative logarithm of the Kd (pKd) was 6.77.

For YCNYSKFWY, the pKd was 5.99 with HLA-A*29:02 (setting [13]); 4.84 in the assay with HLA-A*23:01 (setting [13]); at most 4.63 with HLA-A*24:02 [1] (setting [13]); at most 4.11 in the assay with HLA-A*26:01 [2] (setting [13]); at most 4.67 with HLA-A*01:01 (setting [13]); 5.89 in the assay with HLA-A*30:02 (setting [13]).

The sequence TKKNLTRKI had a negative logarithm of the IC50 (pIC50) in the assay with HLA-A*24:02 [3] (setting [9]) of at most 3.81.

For PKAQREIFS, the negative logarithm of the IC50 (pIC50) with HLA-A*24:02 [3] (source organism: Variola virus) is 4.52.

In the case of LWEKLCYLI, the negative-log Kd (pKd) was 5.35 with HLA-A*29:02 (setting [14]), 6.58 with HLA-A*23:01 (setting [14]) and 5.54 in the assay with HLA-A*24:02 [1] (setting [14]).

With YYGLVTEQF, the values for the negative logarithm of the Kd (pKd) with HLA-A*29:02 (setting [15]), with HLA-A*23:01 (setting [15]) and with HLA-A*24:02 [1] (setting [15]) were 7.02, 8.83 and 8.49, respectively.

Take YLLFGIKCI: the negative logarithm of the IC50 (pIC50) with HLA-A*24:02 [3] (setting [6]) is 5.15.

For WYMWLGARFL, the results for the negative-log Kd (pKd) with HLA-A*23:01 (setting [10]) and with HLA-A*24:02 [1] (setting [10]) were 7.31 and 8.20, respectively.

SYYATSYLE had a negative-log IC50 (pIC50) with HLA-A*24:02 [3] (setting [12]) of 5.36.

GMEAQFLYLY: the negative-log Kd (pKd) with HLA-A*29:02 (setting [5]) was 7.54; in the assay with HLA-A*23:01 (setting [5]) it was at most 4.33; in the assay with HLA-A*24:02 [1] (setting [5]) it was at most 4.24; in the assay with HLA-A*26:01 [2] (setting [5]), 4.91; with HLA-A*01:01 (setting [5]) it was 6.74; with HLA-A*30:02 (setting [5]) it was 6.83.

For the sequence LWEGSPGKFW, the negative-log Kd (pKd) with HLA-A*23:01 (setting [11]) is 5.65.

PYLKATKQI: the values for the pKd with HLA-A*29:02 (setting [14]), with HLA-A*23:01 (setting [14]) and with HLA-A*24:02 [1] (setting [14]) were at most 4.10, 6.88 and 6.25, respectively.

Take VYFESFVREF: the negative logarithm of the Kd (pKd) with HLA-A*29:02 (setting [13]) was 6.74; with HLA-A*23:01 (setting [13]), 8.05; with HLA-A*24:02 [1] (setting [13]) it was 7.22.

For the sequence IENSTANVSL, in the assay with HLA-B*40:01 (setting [8]), the pKd is 8.22.

With LEIGKLPQHL, the negative-log Kd (pKd) in the assay with HLA-B*40:01 (setting [11]) was 6.84.

As for AEGVIAFLI, the negative logarithm of the IC50 (pIC50) with HLA-A*24:02 [3] (setting [12]) is 6.36.

As to QWSLFFFVY, the pKd in the assay with HLA-A*29:02 (setting [5]) is 7.87; in the assay with HLA-A*23:01 (setting [5]) it was at most 4.11; with HLA-A*24:02 [1] (setting [5]), at most 4.35; with HLA-A*26:01 [2] (setting [5]), 4.75; in the assay with HLA-A*01:01 (setting [5]), 5.09; with HLA-A*30:02 (setting [5]) it was 5.86.

As to IAWIPYFGP, the pIC50 with HLA-A*02:01 was 4.57; with HLA-A*24:02 [3] (setting [12]), 4.25.

Values taken from the Immune Epitope Database (IEDB).
